The target in the assay is T1, Pti6 (Solanum lycopersicum (Tomato) …, UniProt O04682 1-248, limits assumed).
T1 construct: Tested as a yeast two-hybrid prey expressed from vector pJG4-5; also called prey of Pti6 (in pJG4-5)
Description: yeast two-hybrid (LEU2 and lacZ reporters), Bicoid bait in pEG202, prey in pJG4-5. The method, then: Figure 2: FIG. 2 sets forth results of the Experiment described in Example 1 herein. Briefly, EGY48 yeast cells containing a prey of Pti4, Pti5 or Pti6 (in pJG4–5), and a bait of Pto, pto or Bicoid (in pEG202) were grown on galactose Ura⁻His⁻Trp⁻X-Gal medium. The plates were incubated at 30° C. for three days and photographed. Four independent, representative colonies are shown for each bait/prey combination.
Yeast strains carrying the Pto bait and a prey of Pti4, Pti5 or Pti6 grew in the absence of leucine, indicative of the LEU2 reporter gene activation. When grown on X-Gal plates, these yeast cells were blue as a result of the lacZ reporter gene activation. As determined by the intensity of blue color, the strength of interaction of Pto with these three preys is in the order of Pti6>Pti4>Pti5.

T1 sequence (O04682 whole entry): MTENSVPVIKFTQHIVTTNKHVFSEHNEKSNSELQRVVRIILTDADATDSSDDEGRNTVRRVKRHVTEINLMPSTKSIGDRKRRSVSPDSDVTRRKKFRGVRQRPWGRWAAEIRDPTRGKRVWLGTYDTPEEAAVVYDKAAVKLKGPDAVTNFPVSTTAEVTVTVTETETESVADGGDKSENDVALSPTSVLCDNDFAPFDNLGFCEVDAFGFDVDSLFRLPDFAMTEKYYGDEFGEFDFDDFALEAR

B1: Bicoid (other, UniProt P09081 2-160, looked up)
chain: AQPPPDQNFYHHPLPHTHTHPHPHSHPHPHSHPHPHHQHPQLQLPPQFRNPFDLLFDERTGAINYNYIRPYLPNQMPKPDVFPSEELPDSLVMRRPRRTRTTFTSSQIAELEQHFLQGRYLTAPRLADLSAKLALGTAQVKIWFKNRRRRHKIQSDQHK
notes: Control bait expressed from vector pEG202; also called arbitrary bait Bicoid (in pEG202)
B1: the binding result is listed as “no binding”.

(Values after patent US6653533 (PURDUE RESEARCH FOUNDATION, dated 1997).)
